# How the values were obtained:
# [1] = target: Rabbit skeletal muscle actin (RMA), as filaments (rabbit) (UniProt P68135); test: single-molecule microfluidics-assisted TIRF microscopy
# [2] = target: GST-549-SNAP-N-IQGAP1 (GST-SNAP-N-IQGAP1-6His, 1-522) (UniProt P46940); test: single-molecule step photobleaching
# [3] = target: Rabbit skeletal muscle actin (RMA), as filaments (rabbit) (UniProt P68135)
average dwell time on filament sides [1] [min],koff [1] [s⁻¹],stoichiometry N [2],barbed end depolymerization rate in mf-TIRF: IC50 of N-IQGAP1 [3] [nM],Substance
6.8,0.0025,2,–,"GST-549-SNAP-N-IQGAP1 (GST-SNAP-N-IQGAP1-6His, 1-522) (from UniProt P46940 1-522) (domain or fragment)"
–,–,–,0.3,6His-N-IQGAP1 (1-522) (from UniProt P46940 1-522) (domain or fragment)

# Reference: doi:10.1101/2021.04.18.440338
